Test results from the supplement of paper PMC12667976.

B1: library; numbered along this chain (parent)
chain: MATDAALRRLLRLHRTEIAVAVDSAFPLLHALADHDVVPEDKFQETLHLKEKEGCPQAFHALLSWLLTQDSTAILDFWRVLFKDYNLERYGRLQPILDSFPKDVDLSQPRKGRKPPAVPKALVPPPRLPTKRKASEEARAAAPAALTPRGTASPGSQLKAKPPKKPESSAEQQRLPLGNGIQTMSASVQRAVAMSSGDVPGARGAVEGILIQQVFESGGSKKCIQVGGEFYTPSKFEDSGSGKNKARSSSGPKPLVRAKGAQGAAPGGGEARLGQQGSVPAPLALPSDPQLHQKNEDECAVCRDGGELICCDGCPRAFHLACLSPPLREIPSGTWRCSSCLQATVQEVQPRAEEPRPQEPPVETPLPPGLRSAGEEVRGPPGEPLAGMDTTLVYKHLPAPPSAAPLPGLDSSALHPLLCVGPEGQQNLAPGARCGVCGDGTDVLRCTHCAAAFHWRCHFPAGTSRPGTGLRCRSCSGDVTPAPVEGVLAPSPARLAPGPAKDDTASHEPALHRDDLESLLSEHTFDGILQWAIQSMARPAAPFPS

Variants of: B1
Assay: AIRE transcriptional activation functional score (insulin promoter-GFP; nonsense median 0, synonymous median 1) (normalised score); higher = higher AIRE activity (more reporter activation)
Details: with insulin promoter-GFP reporter in HEK293
Procedure: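 Deep mutational scan of full-length human AIRE (codon-optimized cDNA, DT-POPCode NNN libraries over three regions) integrated at a Bxb1 landing pad in HEK293 cells carrying an insulin core promoter-GFP reporter at a Flp-In site. Cells were sorted for the top 10% GFP about 14 days after transfection. Variant frequency log-ratios (select vs non-select, TileSeq) were rescaled so that the nonsense median is 0 and the synonymous median is 1, then averaged over biological replicates.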

AIRE transcriptional activation functional score of substitutions, site by site:
A33: N 1.58 | K -0.895 | E 0.898 | Y 0.238 | S 0.0699 | G 0.554 | V 1.53 | I -1.54 | F 0.348 | P -0.0164 | T 0.426 | R -0.705 | L 0.173 | D -1.07 | C 0.846 | W 0.679
E40: A -0.436 | C -1.11 | D 0.418
L32: P -0.841 | N -0.605 | Q -0.665 | T -0.512 | V -0.331 | S -0.125 | M -0.0821 | A -0.972 | I -0.434 | Y 0.28 | W -1.32 | H -0.413 | C -0.199 | G -0.111 | F -0.313 | R -0.205
V22: N -0.13 | R 0.528 | I 1.57 | Y -0.0365 | E -1.03 | S -0.103 | A 0.0736 | T -0.0112 | M -0.505 | K -1.05 | H 0.157 | P -0.118 | G -0.0564 | C -0.0794 | D -0.245 | L 0.487 | W -0.0929 | F -0.0603
P27: R 0.196 | C -0.00711 | W 0.934 | F -0.037 | K 0.0588 | G 0.0337 | H 0.254 | V -0.229 | S 0.41 | I 0.28 | D -0.285 | M -0.268 | E -0.123 | N 0.263 | Q 0.267 | L 0.398 | Y -0.654 | T 0.0492 | A 0.562
D34: H 1.62 | E -2.11 | F 0.247 | P 0.782 | Y -0.0055 | W -0.393 | L 0.437 | G 0.43 | C -0.617 | S -0.594 | A -0.1 | I -0.247 | M -1.08 | R -0.24 | V 0.0819 | Q -0.011 | N 0.331 | T -1.22
A31: L 0.635 | R -0.0467 | I 0.231 | N -0.416 | F -0.218 | H -0.698 | S 0.0612 | C -0.0426 | Q 0.778 | V -0.00796 | D 0.894 | G 0.0886 | W -0.0372 | Y 1.22 | P -0.0989 | T -0.678
S24: E 0.661 | C 0.658 | K 1.61 | G 0.358 | Q -0.0656 | A -0.0275 | L -0.159 | M 1.04 | W -0.0451 | F 0.0274 | P -0.246 | Y 0.463 | V 0.582 | I 0.123 | H -0.0302 | R 0.239 | T -0.0952 | D 0.577
V37: W -0.538 | H 0.218 | C -0.563 | S -0.316 | D 0.512 | M -1.53 | Y 0.262 | L -0.0654 | F 0.178 | I 0.337 | G 0.192 | E -0.336 | A -0.162 | K 0.536 | R 0.122
H30: W -0.339 | F 0.0787 | Q -0.357 | M 0.839 | L 0.0371 | R 0.24 | Y 1.23 | G 0.000219 | I -0.51 | K 0.682 | S 0.156 | E 0.323 | D 0.0821 | C 0.429 | P -0.0919 | A -0.75 | V -0.417 | T -0.172 | N 0.384
D36: M -0.672 | L -0.0069 | C -0.525 | Q -0.178 | I 0.0675 | Y 0.501 | F -0.636 | R 0.583 | N 1.07 | P 0.171 | S 0.294 | W 0.641 | E 1.34 | T -0.367 | K 0.212 | V -0.422 | H -1.75 | G 0.788 | A 0.22
P39: T 1.25 | G -0.241 | H 0.277 | Q 0.348 | F 1.34 | R 0.0519 | L -0.0747 | S 0.402 | K -0.314 | V -1.34 | A -0.568 | W 0.403 | Y -1.28 | M -0.22 | E 0.999
F26: V -0.0518 | E -0.35 | N 0.281 | D 0.00972 | A -0.171 | R -0.107 | T 0.422 | C -0.0618 | P 0.00822 | G -0.298 | Q -2.95 | L -0.13 | W 1.21 | S 0.0967 | K -0.369 | Y -0.359 | M -1 | H -0.678 | I -0.664
V38: G -0.618 | C 0.438 | K 0.354 | F -0.138 | I 1.55 | A -0.245 | Q -0.0109 | L 0.157 | D -0.427 | T 0.604 | R 0.941 | M 0.387 | S -0.704 | W -0.576 | P -0.205 | Y 0.622 | N -0.701
A25: L 1.16 | N -1.11 | G 0.475 | V 1.01 | S 0.301 | C 0.493 | K 0.411 | I 0.925 | W -0.59 | P 0.792 | F 0.583 | R 0.337 | T 0.533 | Y -0.882 | H -1.85 | D 0.297 | Q 0.196
A21: M 0.432 | H 0.216 | I -0.0753 | Y 0.166 | P 0.125 | S 0.0464 | N 0.54 | V 0.278 | R 0.00134 | W -0.574 | Q -0.205 | T -0.00846 | G 0.0519 | L -0.19
H35: Y 0.805 | T -0.0166 | M -0.719 | C -0.102 | A 0.00595 | I 0.107 | N 0.76 | S 0.352 | P 0.148 | D -0.476 | Q -0.305 | E -0.848 | F 0.0268 | L -0.231 | V 0.15 | K -0.196 | G 0.0779 | W 0.553 | R -0.213
L28: D -0.558 | C -0.067 | R 0.297 | E -1.34 | H -2.61 | M 0.175 | P 0.00884 | N -1.05 | I 0.53 | V 0.05 | A -0.115 | G 0.239 | K 0.863 | Y -0.212 | F -0.285 | W -2.53 | T 0.6 | Q 0.552 | S -0.39
L29: A -0.0346 | S -0.0413 | G -0.175 | W 0.224 | P -0.138 | T -0.208 | C -0.201 | R 0.468 | N 0.195 | V 0.342 | Y -0.0248 | K 0.34 | H -0.121 | Q 0.317 | I 0.187 | F -0.401 | D -0.402 | M -0.19
D23: R -0.0795 | E 1.02 | Q -0.673 | I 0.125 | W -1 | M 0.267 | L -0.372 | H 1.33 | S 0.041 | N -0.303 | A -0.24 | T -0.174 | P -0.613 | F 0.3 | Y -0.199 | C -0.0222 | K -0.339 | V -0.286 | G 0.031
